Test results published in patent US20220153851A1 (Five Prime, published 2022).

Tests used:
[1] = target: T1, mCSF1R ECD-Fc (mouse); assay: ELISA, plate coated with mCSF1R ECD-Fc, detection anti-human kappa-HRP, A450
T1 construct: also called mouse CSF1R ECD
Method: (§1) Ninety-six well clear-bottom ELISA plates were coated overnight with 1 μg/ml recombinant hCSF1R ECD.506-Fc (SEQ ID NO: 6; FivePrime Therapeutics) or Human M-CSF R Fc Chimera (R&D Systems) in PBS. The next morning, wells were washed four times with 0.05% Tween20 in PBS (PBST) and blocked with Blocker-Blotto (Pierce). Fifty μl of 0.5× serial dilutions of the humanized antibody or parental chimeric antibody, beginning with 2000 ng/ml, diluted 1:1 in Blocker-Blotto were added to the CSF1R-coated wells. After incubation at room temperature (RT) for 90 min, wells were washed four times with PBST, and a 1:5000 dilution of a peroxidase-conjugated Goat anti-Human kappa Light chain antibody (Sigma) in Blocker-Blotto was added to each well. After incubation at RT for 60 min, wells were washed four times with PBST, and 50 μl o-phenylenediamine dihydrochloride peroxidase substrate (Sigma) was added to each well. After incubation at RT for 30 min, A450 values of each well were read directly on a SpectraMaxPlus spectrophotometer with SoftMaxPro software (Molecular Devices).
The binding curve for each humanized antibody binding to mouse CSF1R ECD was determined as described above for human CSF1R, except the wells of the clear-bottom ELISA plates were coated overnight with 2 μg/ml recombinant mCSF1R ECD-Fc (FivePrime Therapeutics, SEQ ID NO: 93).

[2] = target: human CSF1R on CSF1R (SEQ ID NO: 2)-transfected CHO cells (human, UniProt P07333 20-972); assay: cell-based or functional assay
[3] = target: T2, hCSF1R ECD.506-Fc (human); assay: ELISA, plate coated with human CSF1R ECD-Fc
T2 construct: also called human CSF1R ECD-Fc fusion protein; human CSF1R ECD
Method: as §1

[4] = target: T3, cynoCSF1R ECD-Fc (cynomolgus); assay: competition ELISA, blocking of human IL34 binding to cynoCSF1R ECD-Fc
T3 construct: also called cynomolgus CSF1R ECD

[5] = target: T3, cynoCSF1R ECD-Fc; assay: competition ELISA, blocking of human CSF1 binding to cynoCSF1R ECD-Fc
Method: The humanized antibodies, along with the parental chimeric antibodies (cAbs), were tested for their ability to block human CSF1 binding to human and cynomolgus CSF1R ECD, as follows.
Recombinant Human CSF1 (M-CSF; R&D Systems) was biotinylated using an NH₂-Biotin Labeling Kit (Dojindo Molecular Technologies). One hundred μl of 1 μg/ml biotinylated CSF1 in PBST/0.1% BSA was added to the wells of Reacti-Bind Streptavidin coated plates (Pierce) pre-blocked with SuperBlock blocking buffer (Pierce) according to the manufacturer's instructions. Fifty μl of 0.5× serial dilutions of the humanized antibody or parental chimeric antibody, beginning with 2000 ng/ml, was incubated with 50 ng/ml hCSF1R ECD.506-Fc (SEQ ID NO: 6; FivePrime Therapeutics) or 50 ng/ml cynoCSF1R ECD-Fc (FivePrime Therapeutics, SEQ ID NO: 8, but without the 19 amino acid leader sequence) in 100 μl PBST/0.1% BSA for 90 min at RT, after which the admix was transferred to one or more wells of a ligand-coated plate. After 90 min at RT, wells were washed with PBST, and a 1:5000 dilution of an Fc-fragment-specific peroxidase-conjugated goat anti-human IgG (Jackson Immuno Research) in PBST/0.1% BSA was added to each well. After incubation at RT for 60 min, wells were washed with PBST/0.1% BSA, and o-phenylenediamine dihydrochloride peroxidase substrate (Sigma) was added to each well. After incubation at RT for 30 min, A450 values of each well were read directly on a SpectraMaxPlus spectrophotometer with SoftMaxPro software (Molecular Devices).

[6] = target: T3, cynoCSF1R ECD-Fc; assay: ELISA, plate coated with cynoCSF1R ECD-Fc
Method: as §1
The binding curve for each humanized antibody binding to cynomolgus CSF1R ECD was determined as described above for human CSF1R, except the wells of the clear-bottom ELISA plates were coated overnight with 2 μg/ml recombinant cynoCSF1R ECD-Fc (FivePrime Therapeutics, SEQ ID NO: 8, but without the 19 amino acid leader sequence).

[7] = target: T4, hCSF1R ECD.506 (human, UniProt P07333 20-506); assay: SPR Biacore T100, antibody captured on anti-human IgG, hCSF1R ECD.506 as analyte, 1:1 model
T4 construct: also called human CSF1R ECD
Method: The kₐ, kd, and KD for binding to human CSF1R ECD was determined for each of the humanized antibodies as follows.
Binding kinetics of anti-CSF1R humanized antibodies to CSF1R ECD was determined using Biacore T100 Surface Plasmon Resonance (SPR) (GE Healthcare Life Sciences, Piscataway, N.Y.). Each of the humanized anti-CSF1R antibodies was captured on a CM5 sensor chip immobilized with anti-Human IgG antibody using the Human antibody capture kit (GE Healthcare Life Sciences, Piscataway, N.Y.) at 150 RU so that the Rmax value for hCSF1R ECD.506 (SEQ ID NO: 5) binding was 100 RU. Rmax values of less than 150 RU are recommended for accurately determining kinetic values. […] The association constant, dissociation constant, affinity, and binding capacity of each of the Fabs for human CSF1R ECD was calculated using the Biacore T100 Evaluation software package using the 1:1 binding model.

B1: h0311-L0H2 (antibody, human IgG4 S228P, kappa, V domains shown)
VH: QVQLVQSGAEVKKPGSSVKVSCKASGYIFTDYNMHWVRQAPGQGLEWMGEINPNNGVVVYNQKFKGTTTLTVDKSTSTAYMELSSLRSEDTAVYYCTRALYHSNFGWYFDSWGQGTLVTVSS
VL: EIVLTQSPATLSLSPGERATLSCKASQSVDYDGDSHMNWYQQKPGQAPRLLIYTASNLESGIPARFSGSGSGTDFTLTISSLEPEDFAVYYCQQGNEDPWTFGQGTKVEIKR
notes: also called Ab15; huAb 0311-L0H2
binding result [1]: no binding (tested: 2000 ng/ml)
IC50, inhibition of CSF1-induced CSF1R phosphorylation (head prints 'Human CSF1/Human CSF1R ECD IC50') [2]: 0.435 µg/mL
IC50, inhibition of IL34-induced CSF1R phosphorylation (head prints 'Human IL34/Human CSF1R ECD IC50') [2]: 0.633 µg/mL
EC50 [3]: 0.0115 µg/mL
IC50 [4]: 0.0408 µg/mL
IC50 [5]: 0.026 µg/mL
EC50 [6]: 0.0175 µg/mL
Kd [7]: 350 pM
koff [7]: 0.000473 s⁻¹
kon [7]: 1.34e+06 M⁻¹ s⁻¹

B2: h0311-L1H1 (antibody, human IgG4 S228P, kappa, V domains shown)
VH: QVQLVQSGAEVKKPGSSVKVSCKASGYIFTDYNMHWVRQAPGQGLEWMGEINPNNGVVVYNQKFKGRVTITVDKSTSTAYMELSSLRSEDTAVYYCTRALYHSNFGWYFDSWGQGTLVTVSS
VL: DIVLTQSPATLSLSPGERATLSCKASQSVDYDGDSHMNWYQQKPGQAPRLLIYTASNLESGIPARFSGSGSGADFTLTISSLEPEDFAVYYCQQGNEDPWTFGQGTKVEIKR
notes: also called Ab14; huAb 0311-L1H1
binding result [1]: no binding (tested: 2000 ng/ml)
IC50, inhibition of CSF1-induced CSF1R phosphorylation (head prints 'Human CSF1/Human CSF1R ECD IC50') [2]: 0.508 µg/mL
IC50, inhibition of IL34-induced CSF1R phosphorylation (head prints 'Human IL34/Human CSF1R ECD IC50') [2]: 0.667 µg/mL
EC50 [3]: 0.0143 µg/mL
IC50 [4]: 0.0537 µg/mL
IC50 [5]: 0.0247 µg/mL
EC50 [6]: 0.0309 µg/mL
Kd [7]: 500 pM
koff [7]: 0.000664 s⁻¹
kon [7]: 1.32e+06 M⁻¹ s⁻¹

B3: h0302-L0H2 (antibody, human IgG4 S228P, kappa, V domains shown)
VH: QVQLVQSGAEVKKPGSSVKVSCKASGYTFSDFNIHWVRQAPGQGLEWIGYINPYTDVTVYNEKFKGRATLTSDKSTSTAYMELSSLRSEDTAVYYCASYFDGTFDYALDYWGQGTLVTVSS
VL: EIVLTQSPATLSLSPGERATLSCRASESVDNYGLSFMNWYQQKPGQAPRLLIYTASNLESGIPARFSGSGSGTDFTLTISSLEPEDFAVYYCQQSKELPWTFGQGTKVEIKR
notes: also called Ab10; huAb 0302-L0H2
binding result [1]: no binding (tested: 2000 ng/ml)
IC50, inhibition of CSF1-induced CSF1R phosphorylation (head prints 'Human CSF1/Human CSF1R ECD IC50') [2]: 0.438 µg/mL
IC50, inhibition of IL34-induced CSF1R phosphorylation (head prints 'Human IL34/Human CSF1R ECD IC50') [2]: 0.474 µg/mL
EC50 [3]: 0.0179 µg/mL
IC50 [4]: 0.248 µg/mL
EC50 [6]: 0.155 µg/mL
Kd [7]: 530 pM
koff [7]: 0.00179 s⁻¹
kon [7]: 3.4e+06 M⁻¹ s⁻¹

B4: h0301-L0H1 (antibody, human IgG4 S228P, kappa)
heavy: not shown
light: EIVLTQSPATLSLSPGERATLSCKASQSVDYDGDNYMNWYQQKPGQAPRLLIYAASNLESGIPARFSGSGSGTDFTLTISSLEPEDFAVYYCHLSNEDLSTFGGGTKVEIKRTVAAPSVFIFPPSDEQLKSGTASVVCLLNNFYPREAKVQWKVDNALQSGNSQESVTEQDSKDSTYSLSSTLTLSKADYEKHKVYACEVTHQGLSSPVTKSFNRGEC
notes: also called Ab2; huAb 0301-L0H1
binding result [1]: no binding (tested: 2000 ng/ml)
IC50, inhibition of CSF1-induced CSF1R phosphorylation (head prints 'Human CSF1/Human CSF1R ECD IC50') [2]: 0.778 µg/mL
IC50, inhibition of IL34-induced CSF1R phosphorylation (head prints 'Human IL34/Human CSF1R ECD IC50') [2]: 0.453 µg/mL
EC50 [3]: 0.0142 µg/mL
IC50 [4]: 0.0364 µg/mL
IC50 [5]: 0.0274 µg/mL
EC50 [6]: 0.0144 µg/mL
Kd [7]: 340 pM
koff [7]: 0.00122 s⁻¹
kon [7]: 3.56e+06 M⁻¹ s⁻¹

B5: h0301-L1H2 (antibody, human IgG4 S228P, kappa)
heavy: not shown
light: NIVLTQSPATLSLSPGERATLSCKASQSVDYDGDNYMNWYQQKPGQAPRLLIYAASNLESGIPARFSGSGSGTDFTLTISSLEPEDFAVYYCHLSNEDLSTFGGGTKVEIKRTVAAPSVFIFPPSDEQLKSGTASVVCLLNNFYPREAKVQWKVDNALQSGNSQESVTEQDSKDSTYSLSSTLTLSKADYEKHKVYACEVTHQGLSSPVTKSFNRGEC
notes: also called Ab6; huAb 0301-L1H2
binding result [1]: no binding (tested: 2000 ng/ml)
IC50, inhibition of CSF1-induced CSF1R phosphorylation (head prints 'Human CSF1/Human CSF1R ECD IC50') [2]: 0.682 µg/mL
IC50, inhibition of IL34-induced CSF1R phosphorylation (head prints 'Human IL34/Human CSF1R ECD IC50') [2]: 0.397 µg/mL
EC50 [3]: 0.0162 µg/mL
IC50 [4]: 0.0365 µg/mL
IC50 [5]: 0.0278 µg/mL
EC50 [6]: 0.0166 µg/mL
Kd [7]: 250 pM
koff [7]: 0.000742 s⁻¹
kon [7]: 2.95e+06 M⁻¹ s⁻¹

B6: h0301-L0H2 (antibody, human IgG4 S228P, kappa)
heavy: not shown
light: EIVLTQSPATLSLSPGERATLSCKASQSVDYDGDNYMNWYQQKPGQAPRLLIYAASNLESGIPARFSGSGSGTDFTLTISSLEPEDFAVYYCHLSNEDLSTFGGGTKVEIKRTVAAPSVFIFPPSDEQLKSGTASVVCLLNNFYPREAKVQWKVDNALQSGNSQESVTEQDSKDSTYSLSSTLTLSKADYEKHKVYACEVTHQGLSSPVTKSFNRGEC
notes: also called Ab3; huAb 0301-L0H2
binding result [1]: no binding (tested: 2000 ng/ml)
IC50, inhibition of CSF1-induced CSF1R phosphorylation (head prints 'Human CSF1/Human CSF1R ECD IC50') [2]: 1.32 µg/mL
IC50, inhibition of IL34-induced CSF1R phosphorylation (head prints 'Human IL34/Human CSF1R ECD IC50') [2]: 0.481 µg/mL
EC50 [3]: 0.0148 µg/mL
IC50 [4]: 0.0374 µg/mL
IC50 [5]: 0.028 µg/mL
EC50 [6]: 0.0138 µg/mL
Kd [7]: 280 pM
koff [7]: 0.00066 s⁻¹
kon [7]: 2.32e+06 M⁻¹ s⁻¹

B7: h0301-L1H1 (antibody, human IgG4 S228P, kappa)
heavy: not shown
light: NIVLTQSPATLSLSPGERATLSCKASQSVDYDGDNYMNWYQQKPGQAPRLLIYAASNLESGIPARFSGSGSGTDFTLTISSLEPEDFAVYYCHLSNEDLSTFGGGTKVEIKRTVAAPSVFIFPPSDEQLKSGTASVVCLLNNFYPREAKVQWKVDNALQSGNSQESVTEQDSKDSTYSLSSTLTLSKADYEKHKVYACEVTHQGLSSPVTKSFNRGEC
notes: also called Ab5; huAb 0301-L1H1
binding result [1]: no binding (tested: 2000 ng/ml)
IC50, inhibition of CSF1-induced CSF1R phosphorylation (head prints 'Human CSF1/Human CSF1R ECD IC50') [2]: 0.814 µg/mL
IC50, inhibition of IL34-induced CSF1R phosphorylation (head prints 'Human IL34/Human CSF1R ECD IC50') [2]: 0.384 µg/mL
EC50 [3]: 0.0165 µg/mL
IC50 [4]: 0.0424 µg/mL
IC50 [5]: 0.0311 µg/mL
EC50 [6]: 0.0167 µg/mL
Kd [7]: 320 pM
koff [7]: 0.000921 s⁻¹
kon [7]: 2.87e+06 M⁻¹ s⁻¹
